Assay results: paper PMC3755756

Biological target: ubiquitin (15N-Ub) (UniProt P0CG48)
Test: NMR titration

Kd relative to the V domains of Alix and HD-PTP (~50 μM): 5 fold
Substance: V domain of S. castelli Bro1 (domain or fragment)
